The results in this text go back to publication PMC3578932, “In Vitro Characterization of Echinomycin Biosynthesis: Formation and Hydroxylation of L-Tryptophanyl-S-Enzyme and Oxidation of (2S,3S) β-Hydroxytryptophan” (PLoS ONE, 2013).

The term stoichiometry N denotes a count of units in the complex or per binding partner.

Assay [1] deals with T1, Qui5 and holo-Qui18 coexpression product (complex) (Streptomyces griseovariabilis, UniProt G9JKM4).
T1 construct: full-length A-PCP didomain Qui18 (611 aa) and Qui5 (71 aa), both His6-tagged, coexpressed in E. coli BL21(DE3) with B. subtilis sfp; holo form 64,836 Da (4'-phosphopantetheine on PCP Ser); hetero-tetramer about 160 kD; with MbtH-like protein
The experiment in a line: Q-TOF-MS of amino acid loading onto holo-Qui18. Format: biochemical. As to conditions: covalent; thioester to 4'-phosphopantetheine of the PCP domain; 5 mM L-tryptophan, 5 mM ATP, 10 mM MgCl2, 2 mM DTT, pH 8.0, 27°C, 2 hr.

The target of assay [2] is tryptophan 2,3-dioxygenase Qui17 (Streptomyces griseovariabilis subsp. bandungensis subsp. nov). The assay can be described thus: SEC; purified His-tagged Qui17; data not shown. Background: Size exclusion chromatography separates by hydrodynamic size, large species first.
The target in assay [3] is A-PCP didomain NRPS protein Qui18 (Streptomyces griseovariabilis subsp. bandungensis subsp. nov) (UniProt G9JKM4). The experiment in a line: SEC; copurified His6-tagged Qui5 and Qui18 from coexpression; peak at around 160 kD; fraction analysed by SDS-PAGE (data not shown). Particulars: scale: subunits of Qui5 with 2 subunits of Qui18.

Consider `N[C@@H](Cc1c[nH]c2ccccc12)C(=O)O` [L-tryptophan], for which the “Q-TOF-MS of amino acid loading onto holo-Qui18” value in assay [1] was “Qui18 recognized L-tryptophan as its substrate and its function depended on the association with Qui5”.

Consider “tryptophan 2,3-dioxygenase Qui17 (enzyme)”, for which the stoichiometry N in assay [2] is 4.

In assay [3], “MbtH-like protein Qui5 (natural protein)” came in with a stoichiometry N of 2.
